# B1: Azoarcus group I ribozyme (parent)
# chain: GUGCCUUGCGCCGGGAAACCACGCAAGGGAUGGUGUCAAAUUCGGCGAAACCUAAGCGCCCGCCCGGGCGUAUGGCAACGCCGAGCCAAGCUUCGGCGCCUGCGCCGAUGAAGGUGUAGAGACUAGACGGCACCCACCUAAGGCAAACGCUAUGGUGAAGGCAUAGUCCAGGGAGUGGCGAAAGUCACACAAACCGG
# Variants of: B1
# Assay: reverse-splicing fitness (ratio to wild type); higher = more active; in vitro selection; Mg2+ level not given
# In short: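 An in vitro group I ribozyme library with randomized positions was T7-transcribed and gel-purified. In triplicate, 10 pmol RNA in EPPS pH 7.5 was reacted with 50 pmoles of a 30-nt RNA substrate for 1 h at 37 °C across several added MgCl2 levels (1–48 mM), then stopped with EDTA. Products were reverse transcribed from a substrate-complementary primer, PCR-amplified and sequenced (HiSeq 4000). Fitness is a variant's read proportion after selection over that before, normalised to wild type.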
row,Variant,reverse-splicing fitness
1,C82U A111G A120G A145U C150U C169G U176A,0.0116
2,C82U A111G A120G A145U C150U C169G U176G,0.00409
3,C82U A111G A120G A145U C150U C169G U176C,0.0132
4,C82U A111G A120G A145U C150A C169A U176G,0.00458
5,C82U A111G A120G A145U C150A C169A U176A,0.013
6,C82U A111G A120G A145U C150A C169A U176C,0.00962
7,C82U A111G A120G C150G C169G U176C,0.00458
8,C82U A111G A120G C150G C169G U176A,0.00604
9,C82U A111G A120G C150G C169G U176G,0.00428
10,C82U A111G A120G A145G C150A C169G,0.009
11,C82U A111G A120G A145G C150A C169U,0.00914
12,C82U A111G A120G A145G C150A C169A,0.00945
13,C82U A111G A120C C150U U176A,0.0148
14,C82U A111G A120C C150U U176C,0.0218
15,C82U A111G A120C C150U U176G,0.00651
16,C82U A111G A120U A145C C150A C169A U176C,0.00185
17,C82U A111G A120U A145C C150A C169A U176A,0.00213
18,C82U A111G A120U A145C C150A C169A U176G,0.00186
19,C82U A111G A120G A145G C150A C169G U176A,0.0174
20,C82U A111G A120G A145G C150A C169G U176G,0.00482
21,C82U A111G A120G A145G C150A C169G U176C,0.0228

row,Variant,reverse-splicing fitness
1,C82U A111G A120G C150A C169G U176C,0.0197
2,C82U A111G A120G C150A C169G U176A,0.0186
3,C82U A111G A120G C150A C169G U176G,0.00435
4,C82U A111G A120G A145C C150A C169G U176C,0.015
5,C82U A111G A120G A145C C150A C169G U176G,0.00465
6,C82U A111G A120G A145C C150A C169G U176A,0.023
7,C82U A111G A120G A145C C150A,0.00658
8,C82U A111G A120G A145C C150G,0.00632
9,C82U A111G A120G A145C C150U,0.00813
10,C82U A111G A120U A145C C150U C169A U176A,0.00277
11,C82U A111G A120U A145C C150U C169A U176C,0.0021
12,C82U A111G A120U A145C C150U C169A U176G,0.00196
13,C82U A111G A120G A145C C169A U176A,0.011
14,C82U A111G A120G A145C C169A U176G,0.00366
15,C82U A111G A120G A145C C169A U176C,0.00572
16,C82U A111G A120U A145C C150G C169U U176A,0.00227
17,C82U A111G A120U A145C C150G C169U U176G,0.00181
18,C82U A111G A120U A145C C150G C169U U176C,0.00213
19,C82U A111G A120G C150A U176A,0.00996
20,C82U A111G A120G C150A U176G,0.00658
21,C82U A111G A120G C150A U176C,0.016

row,Variant,reverse-splicing fitness
1,C82U A111G A120G A145G C150G C169U U176G,0.00643
2,C82U A111G A120G A145G C150G C169U U176C,0.0105
3,C82U A111G A120G A145G C150G C169U U176A,0.0114
4,C82U A111G A120G A145C C150G C169A,0.00854
5,C82U A111G A120G A145C C150G C169G,0.00713
6,C82U A111G A120G A145C C150G C169U,0.00741
7,C82U A111G A120G A145G C150U C169G,0.0111
8,C82U A111G A120G A145G C150U C169U,0.0114
9,C82U A111G A120G A145G C150U C169A,0.0108
10,C82U A111G A120G A145G C169A U176C,0.0277
11,C82U A111G A120G A145G C169A U176G,0.00377
12,C82U A111G A120G A145G C169A U176A,0.0215
13,C82U A111G A120G A145G C150U U176G,0.00622
14,C82U A111G A120G A145G C150U U176C,0.0166
15,C82U A111G A120G A145G C150U U176A,0.00859
16,C82U A111G A120G A145G C169G U176G,0.00424
17,C82U A111G A120G A145G C169G U176C,0.0289
18,C82U A111G A120G A145G C169G U176A,0.0211
19,C82U A111G A120G A145U C150G C169U U176G,0.0048
20,C82U A111G A120G A145U C150G C169U U176A,0.0129
21,C82U A111G A120G A145U C150G C169U U176C,0.0117

row,Variant,reverse-splicing fitness
1,C82U A111G A120C C169G U176C,0.0156
2,C82U A111G A120C C169G U176G,0.00426
3,C82U A111G A120C C169G U176A,0.0168
4,C82U A111G A120G C169G U176A,0.0186
5,C82U A111G A120G C169G U176G,0.00369
6,C82U A111G A120G C169G U176C,0.0247
7,C82U A111G A120G A145C C150G C169U U176C,0.0102
8,C82U A111G A120G A145C C150G C169U U176G,0.00462
9,C82U A111G A120G A145C C150G C169U U176A,0.0136
10,C82U A111G A120G A145C C150A C169U U176G,0.00373
11,C82U A111G A120G A145C C150A C169U U176A,0.0192
12,C82U A111G A120G A145C C150A C169U U176C,0.00907
13,C82U A111G A120U A145C C150G U176A,0.0026
14,C82U A111G A120U A145C C150G U176G,0.00159
15,C82U A111G A120U A145C C150G U176C,0.00405
16,C82U A111G A120U A145C,0.0379
17,C82U A111G A120G C169G,0.0125
18,C82U A111G A120G C169A,0.0106
19,C82U A111G A120G C169U,0.0109
20,C82U A111G A120U A145C C150A C169G U176C,0.00206
